# Where a chain is given by its changes, count along the chain named. Non-standard residues stand in square brackets, D forms with d. No end group written: not given here. Aib = CC(C)(N)C(=O)O
# B1: anti-Her2 two helix binder (SEQ ID NO. 23) (designed binder)
# chain: VENKCNKEMRNAYWEIALLPNLNNQQKRAFIRSLYDDPX
# modifications: C^1 = hindered cysteine (penicillamine) at 39, disulfide linkage to natural Cys 5
# B2: anti-Her2 two helix binder (SEQ ID NO. 19) (designed binder)
# chain: B1 chain with C5X, X39C
# modifications: C^1 = hindered cysteine (penicillamine) at 5, disulfide linkage to natural Cys 39
# B3: anti-Her2 two helix binder (SEQ ID NO. 20) (designed binder)
# chain: B1 chain with C5X, X39C
# modifications: C^2 = extended cysteine (homocysteine) at 5, disulfide linkage to natural Cys 39
# B4: anti-Her2 two helix binder (SEQ ID NO. 27), peptide with Ala29Aib (designed binder)
# chain: B1 chain with A29X, X39C
# modifications: X = alpha amino isobutyric acid (Aib) at 29
# notes: Cys at 5 and 39
# B5: anti-Her2 two helix binder (SEQ ID NO. 12), peptide with a covalent bridge between two E^1 residues (designed binder)
# chain: B1 chain with E8X, E15X, X39C
# modifications: E^1 = O-allyl glutamic acid at 8 and 15 joined by a covalent bridge (ring closing metathesis)
# notes: Cys at 5 and 39
# B6: anti-Her2 two helix binder (SEQ ID NO. 24) (designed binder)
# chain: VENKCNK[Aib]MRN[Aib]YWE[Aib]ALLPNLNNQQKRAFIRSLYDDPC-NH2
# modifications: cysteine pairing not given here
# notes: Cys at 5 and 39
# B7: anti-Her2 two helix binder (SEQ ID NO. 25) (designed binder)
# chain: VENKCNKEMRNAYWEIALLPNLNNQ[Aib]KRA[Aib]IRS[Aib]YDDPC-NH2
# modifications: cysteine pairing not given here
# notes: Cys at 5 and 39
# B8: anti-Her2 two helix binder (SEQ ID NO. 26) (designed binder)
# chain: VENKCNK[Aib]MRN[Aib]YWE[Aib]ALLPNLNNQ[Aib]KRA[Aib]IRS[Aib]YDDPC-NH2
# modifications: cysteine pairing not given here
# notes: Cys at 5 and 39
# Target: T1, extracellular domain of the Her2/neu antigen as a conjugate with the Fc region of human IgG (Fc-Her2), R&D … (human, UniProt P04626 23-652)
# T1 construct: extracellular domain; Bought reagent; not shown: Fc region of human IgG
# Experiment: SPR (Biacore) relative binding, about 5 ug/ml peptide
# Experimental: Binding interactions between the binder and the Her2/neu antigen was measured in vitro using surface plasmon resonance (SPR) detection on a BIAcore™ 3000 instrument (Piscataway, N.J.). The extracellular domain of the Her2/neu antigen was obtained as a conjugate with the Fc region of human IgG (Fc-Her2) from R&D Systems and covalently attached to a CM-5 dextran-functionalized sensor chip (BIAcore™) pre-equilibrated with HBS-EP buffer (0.01M HEPES pH 7.4, 0.15M NaCl, 3 mM EDTA, 0.005% v/v surfactant P20) at 10 μL/min and subsequently activated with 1-ethyl-3-[3-dimethylaminopropyl]carbodiimide hydrochloride (EDC) and N-hydroxysuccinimide (NHS). The Fc-Her2 (5 μg/ml) in 10 mM sodium acetate (pH 5.5) was injected onto the activated sensor chip until the desired immobilization level was achieved (2 min). Residual activated groups on the sensor chip were blocked by injection of ethanolamine (1 M, pH 8.5). Any non-covalently bound conjugate was removed by repeated (n=5) washing with 2.5 M NaCl₂, 50 mM NaOH.
# A second flow cell on the same sensor chip was treated identically, except with no Fc-Her2 immobilization, to serve as a control surface for refractive index changes and non-specific binding interactions with the sensor chip. Prior to the kinetic study, binding of the target analyte was tested on both surfaces and a surface stability experiment was performed to ensure adequate removal of the bound analyte and regeneration of the sensor chip following treatment with 2.5 M NaCl, 50 mM NaOH. SPR sensorgrams were analyzed using the BiaEval (BIAcore) software. The robustness of the kinetic model was determined by evaluation of the residuals and standard error for each of the calculated kinetic parameters, the “goodness of the fit” (χ2<10), and a direct comparison of the modeled sensorgrams to the experimental data.
row,Binder,binding result
1,B1,binds
2,B2,binds
3,B3,binds
4,B4,binds
5,B5,binds

# Target: T1, extracellular domain of the Her2/neu …
# Experiment: binding analysis (method not given; SPR per Example 2)
row,Binder,binding result
1,B6,no binding
2,B7,no binding
3,B8,no binding

# — patent US20100035361A1 (published 2010)
